Consider one protein from article PMC10499536 (Nature, 2022).

The series deals with the molecule itself. In words: cryo-EM structure.

B1: truncated mouse mIgM heavy chain lacking the two Fab arms (of IgM BCRΔFab; vector pMS-RL2b) (receptor)
heavy: AEAAAKEAAAKEAAAKAAVAEMNPNVNVFVPPRDGFSGPAPRKSKLICEATNFTPKPITVSWLKDGKLVESGFTTDPVTIENKGSTPQTYKVISTLTISEIDWLNLNVYTCRVDHRGLTFLKNVSSTCAASPSTDILTFTIPPSFADIFLSKSANLTCLVSNLATYETLNISWASQSGEPLETKIKIMESHPNGTFSAKGVASVCVEDWNNRKEFVCTVTHRDLPSPQKKFISKPNEVHKHPPAVYLLPPAREQLNLRESATVTCLVKGFSPADISVQWLQRGQLLPQEKYVTSAPMPEPGAPGFYFTHSILTVTEEEWNSGETYTCVVGHEALPHLVTERTVDKSTEGEVNAEEEGFENLWTTASTFIVLFLLSLFYSTTVTLFKVK
As for B1, the binding result is on record as “binds”.
